Measured values taken from publication PMC2908316 (2009).

B1: RGS16 (protein)
chain: MCRTLAAFPTTCLERAKEFKTRLGIFLHKSELGCDTGSTGKFEWGSKHSKENRNFSEDVLGWRESFDLLLSSKNGVAAFHAFLKTEFSEENLEFWLACEEFKKIRSATKLASRAHQIFEEFICSEAPKEVNIDHETHELTRMNLQTATATCFDAAQGKTRTLMEKDSYPRFLKSPAYRDLAAQASAASATLSSCSLDEPSHT
B2: RGS7 (protein)
chain: MAQGNNYGQTSNGVADESPNMLVYRKMEDVIARMQDEKNGIPIRTVKSFLSKIPSVFSGSDIVQWLIKNLTIEDPVEALHLGTLMAAHGYFFPISDHVLTLKDDGTFYRFQTPYFWPSNCWEPENTDYAVYLCKRTMQNKARLELADYEAESLARLQRAFARKWEFIFMQAEAQAKVDKKRDKIERKILDSQERAFWDVHRPVPGCVNTTEVDIKKSSRMRNPHKTRKSVYGLQNDIRSHSPTHTPTPETKPPTEDELQQQIKYWQIQLDRHRLKMSKVADSLLSYTEQYLEYDPFLLPPDPSNPWLSDDTTFWELEASKEPSQQRVKRWGFGMDEALKDPVGREQFLKFLESEFSSENLRFWLAVEDLKKRPIKEVPSRVQEIWQEFLAPGAPSAINLDSKSYDKTTQNVKEPGRYTFEDAQEHIYKLMKSDSYPRFIRSSAYQELLQAKKKSGNSMDRRTSFEKFAQNVGRNIPIFPCHKNCTPTLRASTNLL
B3: RGS4 (protein)
chain: MCKGLAGLPASCLRSAKDMKHRLGFLLQKSDSCEHNSSHNKKDKVVICQRVSQEEVKKWAESLENLISHECGLAAFKAFLKSEYSEENIDFWISCEEYKKIKSPSKLSPKAKKIYNEFISVQATKEVNLDSCTREETSRNMLEPTITCFDEAQKKIFNLMEKDSYRRFLKSRFYLDLVNPSSCGAEKQKGAKSSADCASLVPQCA
B4: RGS8 (protein)
chain: MAALLMPRRNKGMRTRLGCLSHKSDSCSDFTAILPDKPNRALKRLSTEEATRWADSFDVLLSHKYGVAAFRAFLKTEFSEENLEFWLACEEFKKTRSTAKLVSKAHRIFEEFVDVQAPREVNIDFQTREATRKNLQEPSLTCFDQAQGKVHSLMEKDSYPRFLRSKMYLDLLSQSQRRLS

These binders were tested against Gαo (Homo sapiens, UniProt P09471) (assay: flow cytometry protein interaction assay).
Chain of Gαo (P09471 2-354): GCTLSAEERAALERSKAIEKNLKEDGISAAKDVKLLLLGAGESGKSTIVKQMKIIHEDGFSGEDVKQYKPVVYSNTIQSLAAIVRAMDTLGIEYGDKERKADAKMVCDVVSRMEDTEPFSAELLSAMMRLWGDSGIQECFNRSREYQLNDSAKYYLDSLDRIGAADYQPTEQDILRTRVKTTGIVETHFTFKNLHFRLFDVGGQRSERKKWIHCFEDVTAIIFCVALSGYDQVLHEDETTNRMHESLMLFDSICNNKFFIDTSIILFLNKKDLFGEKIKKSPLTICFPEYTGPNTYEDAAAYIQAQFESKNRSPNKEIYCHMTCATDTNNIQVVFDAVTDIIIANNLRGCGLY

Kd, < 100 nM:
B1
B2
B3
B4
